Experiment [1] addresses T1, recombinant human 4-1BB extracellular domain protein (human, UniProt Q07011 24-186).
T1 construct: extracellular domain; Analyte in the Octet assay; also called CD137; TNFRSF9
The experiment can be described thus: Octet BLI; chimeric IgG from transfection supernatant on anti-human Fc biosensor; recombinant human 41BB; column kdis(1/s) Human. The text has this: (§1) The heavy and light chain expression plasmids generated from each well were transiently co-transfected to produce rabbit/human chimeric antibodies. Recombinant antibody supernatants were confirmed to contain antibodies specific for human and cynomolgus 4-1BB using bio-layer interferometry analysis on a ForteBio Octet Red 96 instrument. Anti-human Fc biosensors (Pall ForteBio) were used to capture antibodies in the supernatants. Association to human or cynomolgus 4-1BB was observed by real-time interferometry by placing the biosensors in wells containing recombinant human or cynomolgus 4-1BB extracellular domain protein. Dissociation was measured after transfer of the biosensors into wells containing 10× kinetics buffer (Pall ForteBio). The software provided by the manufacturer was used to analyze the interferometry data. A summary of the primary BCC screening data and the corresponding screening data for 34 recombinant chimeric rabbit/human IgG antibodies is shown in FIG. 2.
A general note: BLI is a label-free optical method that tracks binding on a fibre tip over time.

The target of experiment [2] is T2, recombinant cynomolgus 4-1BB extracellular domain protein (cynomolgus, UniProt A9YYE7 24-186).
T2 construct: Analyte in the Octet assay
T2 sequence: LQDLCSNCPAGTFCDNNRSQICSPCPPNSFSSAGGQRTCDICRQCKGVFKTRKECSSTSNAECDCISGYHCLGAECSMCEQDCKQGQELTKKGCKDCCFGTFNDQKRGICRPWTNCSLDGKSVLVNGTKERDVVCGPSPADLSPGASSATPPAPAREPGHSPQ
The experiment can be described thus: Octet BLI; chimeric IgG from transfection supernatant on anti-human Fc biosensor; recombinant cynomolgus 41BB; column kdis(1/s) Cynomolgus.
Excerpt: as §1

B1: 419D9 (antibody, human IgG1, kappa, V domains shown)
VH: QSLEESGGDLVKPGASLTLTCTASGFSFSSRHYMCWVRQAPGEGLEWIACIYTGSSGTPHYASWAKGRFTISQTSSTTVTLQMTSLTAADTATYFCSSEGNLWGPGTLVTVSS
VL: AQVLTQTASPVSAAVGGTVTINCQSSQSVYSNWLSWYQQKPGQPPKRLIYSASTLASGVPSRFKGSGSGTQFTLTISDLECDDAATYYCAGGYNTVTDTFAFGRGTEVEVKR
notes: one of the 34 chimeric antibodies; rabbit variable regions on human IgG1 and human kappa; also called 419D9 chimeric rabbit/human IgG
What is called koff is a measure of how fast the partners let go of each other. Regarding B1, the koff in experiment [1] turned out to be 0.00063 s⁻¹; in experiment [2], 0.0014 s⁻¹.

B2: 420H6 (antibody, human IgG1, kappa, V domains shown)
VH: QQQLEESGGGLVKPGGTLTLTCKASGIDFSSSYYMCWVRQAPGEGLEWIACIYTGGSGTPHYASWAKGRFTISQTSSTTVTLQMTSLTAADTATYFCAREGSLWGQGTLVTVSS
VL: AQVLTQTASPVSAAVGGTVTINCQASQSVYSNWLSWYQQKPGQPPKRLIYSASTLASGVPSRFKGSGSGTQFTLTISDLECDDAATYYCAGGYNTVIDTFAFGGGTEVEFKR
notes: one of the 34 chimeric antibodies; rabbit variable regions on human IgG1 and human kappa; also called 420H6 chimeric rabbit/human IgG
For the molecule B2, the results for the koff in experiment [1] and in experiment [2] were 0.00094 s⁻¹ and 0.002 s⁻¹, respectively.

B3: 459F1 (antibody, human IgG1, kappa, V domains shown)
VH: ESLEESGGDLVKPGASLTLTCTASGIDFSRRYYMCWVRQAPGKGLEWIACMYTGSRDTPHYASWAKGRFTISQTSSTTVTLQMTSLTAADTATYFCAREGNLWGPGTLVTVSS
VL: AQVLTQTASPVSAAVGGTVTINCQSSQSVYSNWFSWYQQKPGQPPKLLIYSASTLASGVPSRFKGSGSGTQFTLTISDLECDDAATYYCAGGYNTVTDTFAFGGGTEVEFKR
notes: one of the 34 chimeric antibodies; rabbit variable regions on human IgG1 and human kappa; also called 459F1 chimeric rabbit/human IgG
For the molecule B3, the dissociation rate constant (koff) in experiment [1] stood at 0.00075 s⁻¹; in experiment [2], 0.0075 s⁻¹.

B4: 460C3 (antibody, human IgG1, kappa, V domains shown)
VH: QSLEESGGDLVKPGASLTLTCTASGIDFSRRYYMCWVRQAPGKGLEWIACIYTGSRDTPHYASWAKGRFTISQTSSTTVTLQMTSLTAADTATYFCAREGSLWGQGTLVTVSS
VL: AQVLTQTPSSVSAAVGGTVSISCQSSQSVYSNWFSWYQQKPGQPPKLLIYSASTLASGVPSRFKGSGSGTQFTLTISDLECDDAATYYCAGGYNTVIDTFAFGGGTEVEFKR
notes: one of the 34 chimeric antibodies; rabbit variable regions on human IgG1 and human kappa; also called 460C3 chimeric rabbit/human IgG
Regarding B4, the koff in experiment [1] is 0.00067 s⁻¹; in experiment [2] it was 0.0041 s⁻¹.

B5: 418E10 (antibody, human IgG1, kappa, V domains shown)
VH: QSLEESGGRLVTPGTPLTLTCTASDFSLSTYYMSWVRQAPGKGLEWIGSIYDSGAAYYATWAKGRFTISRTSTTVDLRMTSLTAADTATYFCARDPINNAIWGQGTLVTVSS
VL: ALVMTQTPSPVSAAVGGTVTINCQASQSIGSNLNWYQQKPGQPPKLLIYYVSTLASGVPSRFKGSGSGTEYTLTISGVQCDDAATYYCLGVWNYWGDDGTAFGGGTEVEVKR
notes: one of the 34 chimeric antibodies; rabbit variable regions on human IgG1 and human kappa; also called 418E10 chimeric rabbit/human IgG
On to B5, for which the koff was 0.0011 s⁻¹ in experiment [1] and 0.0015 s⁻¹ in experiment [2].

B6: 418E4 (antibody, human IgG1, kappa, V domains shown)
VH: QSLEESGGRLVTPGTPLTLTCTASEFSLSSYYMSWVRQAPGKGLEWIGSIYASGSAYYASWAKGRFTISRTSTTVDLKMTSLTAADTATYFCVRDPINNDIWGPGTLVTVSS
VL: ALVMTQTPSPVSAAVGGTVTINCQASQSIATNLNWYQQKPGQPPKLLIYYTSSLASGVPSRFSGSGSGTEFTLTISGVQCDDAATYYCLGVWNYWGDDGTAFGGGTEVEFKR
notes: one of the 34 chimeric antibodies; rabbit variable regions on human IgG1 and human kappa; also called 418E4 chimeric rabbit/human IgG
With B6, the koff was 0.0036 s⁻¹ in experiment [1] and 0.005 s⁻¹ in experiment [2].

B7: 418H5 (antibody, human IgG1, kappa, V domains shown)
VH: QSLEESGGRLVTPGTPLTLTCTVSGIDLSAYHMSWVRQAPGKGLEYIGMIGSSGTIHYANWAKGRFTISKTSTTVDLKITSPTTEDTATYFCARDSYNSDYAFNLWGPGTLVTVSS
VL: AQVLTQTPASVSATVGSTVTISCQSSPSVYKNNQLAWYQQKPGQPPKLLIYLASTLASGVPSRFKGSGSGTEFTLTISDLECADAATYYCAGGYSSSSDTAFGGGTEVEVKR
notes: one of the 34 chimeric antibodies; rabbit variable regions on human IgG1 and human kappa; also called 418H5 chimeric rabbit/human IgG
With B7, the koff was determined as 0.0014 s⁻¹ in experiment [1] and 0.0016 s⁻¹ in experiment [2].

B8: 416F8 (antibody, human IgG1, kappa, V domains shown)
VH: QSLEESGGRLVTPGTPLTLTCTASGFSLSNYYMNWVRQAPGKGLEYIGIISSSGSAYYASWAKGRFTISRTSTTVDLRITSPTTEDTATYFCARGDYGMDLWGQGTLVTVSS
VL: AQVLTQTASSVSAPVGGTVTISCQSSQTVYNNNLLSWYQQKPGQRPKLLIYYASTLAFGVPSRFKGSGSGTEFTLTISDLECDDAATYFCQGGYSGWIYVFGGGTEVEVKR
notes: one of the 34 chimeric antibodies; rabbit variable regions on human IgG1 and human kappa; also called 416F8 chimeric rabbit/human IgG
As to B8, the koff in experiment [1] is 0.0043 s⁻¹; in experiment [2] it was 0.003 s⁻¹.

B9: 416G1 (antibody, human IgG1, kappa, V domains shown)
VH: QSVEESGGRLVTPGTPLTLTCTVSGFTINSYHMIWVRQAPGEGLEYIGFINDGGFTYYASWAKGRFIISRTSTTVDLKMTSLTVADTATYFCARGVDGTSYPDLWGPGTLVTVSS
VL: DVVMTQTPASVSEPVGGAVTIKCQASQSIGSDLAWYQQKPGQPPKLLIYRASTLASGVSSRFKGSGSGTEFTLTISDLECADAATYYCQCIYYGSDDVIYHTFGGGTEVVVKR
notes: one of the 34 chimeric antibodies; rabbit variable regions on human IgG1 and human kappa; also called 416G1 chimeric rabbit/human IgG
On to B9, for which the koff in experiment [1] is 0.0014 s⁻¹; in experiment [2] it was 0.0019 s⁻¹.

B10: 411H11 (antibody, human IgG1, kappa, V domains shown)
VH: QSVEESGGRLVTPGTPLTLTCTVSGFTISSHHMIWVRQAPGEGLQYIGFINDGDYTYYTNWAKGRFTISRTSTTVDLKMTSLTAADTATYFCARGVDGTSYPGLWGPGTLVTVSS
VL: DVVMTQTPASVSEPVRATVTIKCQASQSIGADLAWYQQKPGQPPKLLIYRASTLASGVPSRFSGSGSGTEFTLTISDLECADAATYYCQCIYYGTDDVIYHTFGGGTEVVFKR
notes: one of the 34 chimeric antibodies; rabbit variable regions on human IgG1 and human kappa; also called 411H11 chimeric rabbit/human IgG
With B10, the values for the koff in experiment [1] and in experiment [2] were 0.001 s⁻¹ and 0.0015 s⁻¹, respectively.

B11: 466F6 (antibody, human IgG1, kappa, V domains shown)
VH: RSLEESGGRLVTPGTPLTLTCTASGFTISSYHMQWVRQAPGKGLEYIGTISSGGNVYYASWARGRFTISRPSSTTVDLKMTSLTTEDTATYFCARDSGYSDPMWGPGTLVTVSS
VL: DVVMTQTPASVSEPVGGTVTIKCQASQNIRTYLSWYQQKPGQRPKLLIYAAANLASGVPSRFSGSRSGTEFTLTISDLECADAATYYCQCTYLGTDYVGGAFGGGTEVEFKR
notes: one of the 34 chimeric antibodies; rabbit variable regions on human IgG1 and human kappa; also called 466F6 chimeric rabbit/human IgG
With B11, the koff turned out to be 0.0021 s⁻¹ in experiment [1] and 0.0026 s⁻¹ in experiment [2].

B12: 472E4 (antibody, human IgG1, kappa, V domains shown)
VH: QSLEESGGRLVTPGGSLTLTCTVSGFSLNNNAISWVRQAPGKGLEWVAIIQNTGTTDYARWAKGRFTISKTSTTVDLKINSPTTEDTATYFCGRGYGFESELVIWGPGTLVTVSS
VL: AAVLTQTPSSTSAAVGGTVTISCQSSQSVYNNNALAWYQKKPGQPPKLLIYLASTLASGVPSRFSGSGSGTQFTLTISDLECDDAATYYCLGVYNDDVDNGFGGGTEVVFKR
notes: one of the 34 chimeric antibodies; rabbit variable regions on human IgG1 and human kappa; also called 472E4 chimeric rabbit/human IgG
For B12, the koff stood at 0.0011 s⁻¹ in experiment [1] and 0.0018 s⁻¹ in experiment [2].

B13: 420H5 (antibody, human IgG1, kappa, V domains shown)
VH: QSLEESGGDLVKPGASLTLTCTASGFSFSSNYWICWVRQAPGKGLEWIACIYVGSSGDTYYASWAKGRFTISKTSSTTVTLQMTSLTAADTATYFCARDSSSYYMFNLWGQGTLVTVSS
VL: ALVMTQTPASVSAAVGGTVTINCQASEDIDTYLAWYQQKPGQPPKLLIFYASDLASGVPSRFKGSGSGTEFTLTISGVQCDDAATYYCQGGYYTSSADTRGAFGGGTEVVVKR
notes: one of the 34 chimeric antibodies; rabbit variable regions on human IgG1 and human kappa; also called 420H5 chimeric rabbit/human IgG
For the molecule B13, the koff in experiment [1] is 0.0013 s⁻¹; in experiment [2] it was 0.0023 s⁻¹.

B14: 470C6 (antibody, human IgG1, kappa, V domains shown)
VH: QSLEEAGGDLVKPGASLTLTCTASGFSFTSSYYMCWVRQAPGKGLEWIACIYTGSSGSTYYANWAKGRFTISKTSSTTVTLQMTSLTAADTATYFCARDSSSYYMFNLWGQGTLVTVSS
VL: ALVMTQTPASVSAAVGGTVTINCQASEDIDNYLAWYQQKPGQPPKLLIFYASDLASGVPSRFSGSGSGTQFTLTISGVQCDDAATYYCQGGYYTSSTDTRGAFGGGTEVVVKR
notes: one of the 34 chimeric antibodies; rabbit variable regions on human IgG1 and human kappa; also called 470C6 chimeric rabbit/human IgG
For B14, the values for the koff in experiment [1] and in experiment [2] were 0.001 s⁻¹ and 0.0014 s⁻¹, respectively.

These data come from patent US20210188989A1 (SYSTIMMUNE, published 2021).
